# Values quoted from earlier work, collected in article PMC9477365.
# What was measured:
# [1] = molecular target: fibrin (gamma' site) gamma' chain (Homo sapiens) (UniProt P02671)
# [2] = molecular target: fibrin (E domain site) E domain (Homo sapiens) (UniProt P02671)
substance,measurement,setting,value
thrombin (from UniProt P00734),Kd,[1],9 µM
same,Kd,[2],2.8 µM
